The results in this text go back to patent US20140178332A1 (published 2014).

Assay [1] has as its target T1, recombinant purified human IL-12 p70 (human, UniProt P29459 23-219).
T1 construct: Disulfide-linked heterodimer of p35 and p40; also called hIL-12; Hu IL-12
T1 sequence 1: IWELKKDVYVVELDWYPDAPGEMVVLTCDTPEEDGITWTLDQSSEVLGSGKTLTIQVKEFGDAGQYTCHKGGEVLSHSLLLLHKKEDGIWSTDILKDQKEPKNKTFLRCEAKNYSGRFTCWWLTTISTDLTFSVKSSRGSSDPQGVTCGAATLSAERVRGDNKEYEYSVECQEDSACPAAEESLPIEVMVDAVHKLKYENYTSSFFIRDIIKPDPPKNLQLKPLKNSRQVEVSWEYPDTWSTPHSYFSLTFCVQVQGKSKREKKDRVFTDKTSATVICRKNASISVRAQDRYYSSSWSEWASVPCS
T1 sequence 2: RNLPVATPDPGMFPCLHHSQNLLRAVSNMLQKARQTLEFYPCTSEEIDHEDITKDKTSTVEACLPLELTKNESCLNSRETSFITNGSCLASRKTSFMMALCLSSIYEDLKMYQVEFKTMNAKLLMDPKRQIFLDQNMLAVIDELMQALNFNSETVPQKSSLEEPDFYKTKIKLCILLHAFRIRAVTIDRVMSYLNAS
In words: competition ELISA on coated human IL-12, competitor of 0.8 µg/ml biotinylated 8E1, Expt. 1. The protocol: (§1) MaxiSorp ELISA plates (Nalge Nunc International) were coated overnight at 4° C. with 100 μl/well of 1.0 μg/ml human IL-12 in 0.2 M sodium carbonate-bicarbonate buffer, pH 9.4, washed with Wash Buffer (PBS containing 0.1% Tween 20), and blocked for 1 hr at room temperature with 300 μl/well of SuperBlock Blocking Buffer in TBS (Pierce Chemical Company). […] As isotype controls, 100 μl/well of 100 μg/ml mouse IgG 1/κ (MuFd79) or humanized IgG1/κ (HuFd79) monoclonal antibodies in ELISA buffer was used. As a no-competitor control, 100 μl/well of ELISA Buffer was used. After incubating the plates for 1 hr at room temperature, and washing with Wash Buffer, bound antibodies were detected using 100 μl/well of 1 μg/ml HRP-conjugated streptavidin (Pierce Chemical Company) in ELISA buffer. After incubating for 1 hr at room temperature, and washing with Wash Buffer, color development was performed by adding 100 μl/well of ABTS Peroxidase Substrate/Peroxidase Solution B (KPL, Inc.). After incubating for 5 min at room temperature, color development was stopped by adding 50 μl/well of 2% oxalic acid. Absorbance was read at 415 nm.
(§2) The affinity of 8E1.4, 8E1.5 and 8E1.6 to human IL-12 was analyzed by competition ELISA as described above.
For orientation: In an ELISA, binding on a coated surface is turned into a signal by an enzyme label.

In assay [2] the target is T1, recombinant purified human IL-12 p70. Description: competition ELISA on coated human IL-12, competitor of 0.8 µg/ml biotinylated 8E1, Expt. 3. The protocol:
as §1, §2

The target is the same in assay [3]. In words: competition ELISA on coated human IL-12, competitor of 0.8 µg/ml biotinylated 8E1, average. The protocol: as §1, §2
Assay [4] deals with T2, recombinant purified mouse IL-12 (Peprotech) (mouse, UniProt P43432 23-335; P43431 23-215).
T2 construct: Bought reagent; also called mu IL-12; murine IL-12
T2 sequence (looked up) 1: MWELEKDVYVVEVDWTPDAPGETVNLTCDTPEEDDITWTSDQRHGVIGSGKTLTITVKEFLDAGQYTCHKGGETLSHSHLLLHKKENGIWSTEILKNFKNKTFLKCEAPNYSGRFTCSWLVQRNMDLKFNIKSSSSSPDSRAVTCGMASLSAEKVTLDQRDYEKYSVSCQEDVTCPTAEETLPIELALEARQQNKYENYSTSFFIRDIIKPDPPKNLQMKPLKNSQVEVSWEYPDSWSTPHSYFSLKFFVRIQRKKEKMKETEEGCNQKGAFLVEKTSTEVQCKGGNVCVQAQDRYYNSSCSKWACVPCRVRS
T2 sequence (looked up) 2: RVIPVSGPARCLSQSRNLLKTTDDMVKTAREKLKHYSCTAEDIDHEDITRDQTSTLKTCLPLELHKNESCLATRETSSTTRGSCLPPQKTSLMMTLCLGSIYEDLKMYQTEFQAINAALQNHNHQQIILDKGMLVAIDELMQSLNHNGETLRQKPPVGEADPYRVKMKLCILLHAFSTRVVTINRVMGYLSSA
Description: indirect ELISA, mAb captured on anti-mouse IgG Fc, mouse IL-12 at 0.2 ug/ml. The protocol: Second, an indirect ELISA was set up by coating ELISA plates with 5 ug/ml of goat anti-mouse IgG, Fc fragment specific antibody (Pierce #31170, Rockland, Ill.). Murine anti-human IL-12 p40 mAbs were prepared at various concentrations ranging from 0.1 to 100 ng/ml in PBS containing 0.1% BSA; 50 ul of each antibody dilution was added to the coated ELISA plate and incubated for 1 hour at room temperature. Wells were washed 3 times with PBS containing 0.05% Tween-20. Recombinant purified mouse IL-12 (Preprotech) was diluted at 0.2 ug/ml in PBS containing 0.1% BSA; 50 ul/well was added and the plates incubated for 1 hour at room temperature. Wells were washed 3 times with PBS containing 0.05% Tween-20. Biotinylated anti-mouse IL-12 antibody (R&D # BAF419) was diluted at 0.2 ug/ml in PBS containing 0.1% BSA; 50 ul/well was added and the plates incubated for 1 hour at room temperature. Wells were washed 3 times with PBS containing 0.05% Tween-20. Streptavidin HRP (Pierce #21126, Rockland, Ill.) was diluted 1:20000 in PBS containing 0.1% BSA; 50 μL/well was added and the plates incubated for 1 hour at room temperature. Plates were washed 3 times with PBS containing 0.05% Tween-20. Fifty microliters of TMB solution was added to each well and incubated for 10 minutes at room temperature. […] Plates were read spectrophotmetrically at a wavelength of 450 nm.

B1: murine anti-human IL-12p40 monoclonal antibody 8E1 (antibody, V domains shown)
VH: EVKLVESGGGLVQPGGSRKLSCAASGFTFSDYGMVWVRQAPGKGLEWVASISSGSSNIYYADTVKGRFTISRDDPNNTLFLQMRSLRSEDTAMYYCARNPYWGQGTTLTVSS
VL: DIVMTQSQKFMSTSVGDRVSVTCKASQNVGTNVAWYQQKPGQSPKGLIYSASHRYSGVPDRFAGSGSGTDFTLTISNVQSEDLAEYFCQQYNSYPLTFGGGTKLELKR
notes: Murine mAb; also called biotinylated 8E1
The IC50 is the concentration that gives 50% inhibition. On to B1, for which the half-inhibitory concentration (IC50) stood at 2.63 µg/mL in assay [1], 2.28 µg/mL in assay [2] and 2.56 µg/mL in assay [3]. For the same molecule, in assay [4], the binding result is “no binding (tested: 0.1 to 100 ng/ml mAb)”.
